T1: G9a and GLP (Homo sapiens, UniProt Q96KQ7+Q9H9B1)
T1 sequence (Q96KQ7 2-1210 limits assumed): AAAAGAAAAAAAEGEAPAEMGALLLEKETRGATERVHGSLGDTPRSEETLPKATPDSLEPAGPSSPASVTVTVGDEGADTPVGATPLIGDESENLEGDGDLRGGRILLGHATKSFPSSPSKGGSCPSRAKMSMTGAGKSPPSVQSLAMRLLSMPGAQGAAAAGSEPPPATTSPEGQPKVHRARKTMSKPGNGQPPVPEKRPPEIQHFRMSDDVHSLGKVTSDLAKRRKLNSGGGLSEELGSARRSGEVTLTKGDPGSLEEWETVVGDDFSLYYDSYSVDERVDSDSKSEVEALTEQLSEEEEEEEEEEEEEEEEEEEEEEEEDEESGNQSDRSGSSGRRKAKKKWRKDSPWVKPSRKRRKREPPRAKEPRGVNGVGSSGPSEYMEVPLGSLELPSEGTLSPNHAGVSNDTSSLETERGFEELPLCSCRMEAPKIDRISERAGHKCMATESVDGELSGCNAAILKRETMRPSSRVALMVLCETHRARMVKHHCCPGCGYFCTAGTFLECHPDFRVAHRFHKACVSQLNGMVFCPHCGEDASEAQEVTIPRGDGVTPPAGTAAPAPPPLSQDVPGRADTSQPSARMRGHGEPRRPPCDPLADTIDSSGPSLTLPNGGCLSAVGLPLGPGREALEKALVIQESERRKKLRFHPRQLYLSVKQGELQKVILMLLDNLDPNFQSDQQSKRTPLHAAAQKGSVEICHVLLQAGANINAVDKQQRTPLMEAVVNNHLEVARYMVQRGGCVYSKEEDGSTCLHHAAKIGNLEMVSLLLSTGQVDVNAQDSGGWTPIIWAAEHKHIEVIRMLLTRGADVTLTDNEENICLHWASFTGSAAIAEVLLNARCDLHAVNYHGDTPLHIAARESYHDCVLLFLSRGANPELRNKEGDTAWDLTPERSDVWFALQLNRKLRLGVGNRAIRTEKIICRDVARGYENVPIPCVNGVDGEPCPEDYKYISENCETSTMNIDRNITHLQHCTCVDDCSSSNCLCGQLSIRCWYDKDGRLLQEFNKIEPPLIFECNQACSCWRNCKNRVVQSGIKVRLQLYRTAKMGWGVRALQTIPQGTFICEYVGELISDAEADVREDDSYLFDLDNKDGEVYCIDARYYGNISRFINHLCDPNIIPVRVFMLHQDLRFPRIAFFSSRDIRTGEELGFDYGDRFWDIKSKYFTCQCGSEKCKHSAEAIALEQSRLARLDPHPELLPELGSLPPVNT
T1 sequence (Q9H9B1 2-1298 limits assumed): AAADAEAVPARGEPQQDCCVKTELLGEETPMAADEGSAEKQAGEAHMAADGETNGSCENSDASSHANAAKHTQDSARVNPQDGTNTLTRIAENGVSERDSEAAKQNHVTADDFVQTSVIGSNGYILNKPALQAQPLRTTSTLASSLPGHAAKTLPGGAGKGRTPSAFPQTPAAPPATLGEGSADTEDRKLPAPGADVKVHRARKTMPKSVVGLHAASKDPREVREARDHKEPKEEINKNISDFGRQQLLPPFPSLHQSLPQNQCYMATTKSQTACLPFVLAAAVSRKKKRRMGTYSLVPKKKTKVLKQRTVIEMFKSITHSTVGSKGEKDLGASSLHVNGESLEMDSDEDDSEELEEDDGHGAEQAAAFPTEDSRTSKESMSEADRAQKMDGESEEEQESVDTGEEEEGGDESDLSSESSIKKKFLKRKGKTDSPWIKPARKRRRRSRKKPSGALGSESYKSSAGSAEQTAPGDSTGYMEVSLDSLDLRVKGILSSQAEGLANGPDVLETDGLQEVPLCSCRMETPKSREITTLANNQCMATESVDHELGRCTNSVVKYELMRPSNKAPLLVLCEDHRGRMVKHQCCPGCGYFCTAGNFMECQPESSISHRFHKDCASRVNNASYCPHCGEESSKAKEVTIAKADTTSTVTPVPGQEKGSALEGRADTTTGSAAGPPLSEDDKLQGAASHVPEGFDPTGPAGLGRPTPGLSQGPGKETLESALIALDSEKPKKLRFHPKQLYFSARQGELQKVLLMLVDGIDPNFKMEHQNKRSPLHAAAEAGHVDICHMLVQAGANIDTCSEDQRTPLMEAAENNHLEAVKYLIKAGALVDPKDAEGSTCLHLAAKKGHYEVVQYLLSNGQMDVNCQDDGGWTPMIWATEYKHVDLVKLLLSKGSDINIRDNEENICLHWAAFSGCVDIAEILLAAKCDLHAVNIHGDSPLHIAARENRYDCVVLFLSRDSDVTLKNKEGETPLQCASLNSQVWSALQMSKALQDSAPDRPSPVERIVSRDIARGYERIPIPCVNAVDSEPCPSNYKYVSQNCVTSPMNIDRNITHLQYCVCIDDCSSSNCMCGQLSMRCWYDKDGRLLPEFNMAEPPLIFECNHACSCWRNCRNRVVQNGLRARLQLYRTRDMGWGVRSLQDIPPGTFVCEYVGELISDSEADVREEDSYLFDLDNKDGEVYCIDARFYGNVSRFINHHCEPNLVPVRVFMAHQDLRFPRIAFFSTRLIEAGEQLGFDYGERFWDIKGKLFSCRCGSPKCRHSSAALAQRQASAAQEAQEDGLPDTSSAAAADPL

B1: CBR1 (protein, UniProt P16152 2-277, looked up)
Carbonyl reductase [NADPH] 1: SSGIHVALVTGGNKGIGLAIVRDLCRLFSGDVVLTARDVTRGQAAVQQLQAEGLSPRFHQLDIDDLQSIRALRDFLRKEYGGLDVLVNNAGIAFKVADPTPFHIQAEVTMKTNFFGTRDVCTELLPLIKPQGRVVNVSSIMSVRALKSCSPELQQKFRSETITEEELVGLMNKFVEDTKKGVHQKEGWPSSAYGVTKIGVTVLSRIHARKLSEQRKGDKILLNACCPGWVRTDMAGPKATKSPEEGAETPVYLALLPPDAEGPHGQFVSEKRVEQW
B2: GSR (protein, UniProt P00390 44-522, looked up)
Glutathione reductase, …: MACRQEPQPQGPPPAAGAVASYDYLVIGGGSGGLASARRAAELGARAAVVESHKLGGTCVNVGCVPKKVMWNTAVHSEFMHDHADYGFPSCEGKFNWRVIKEKRDAYVSRLNAIYQNNLTKSHIEIIRGHAAFTSDPKPTIEVSGKKYTAPHILIATGGMPSTPHESQIPGASLGITSDGFFQLEELPGRSVIVGAGYIAVEMAGILSALGSKTSLMIRHDKVLRSFDSMISTNCTEELENAGVEVLKFSQVKEVKKTLSGLEVSMVTAVPGRLPVMTMIPDVDCLLWAIGRVPNTKDLSLNKLGIQTDDKGHIIVDEFQNTNVKGIYAVGDVCGKALLTPVAIAAGRKLAHRLFEYKEDSKLDYNNIPTVVFSHPPIGTVGLTEDEAIHKYGIENVKTYSTSFTPMYHAVTKRKTKCVMKMVCANKEEKVVGIHMQGLGCDEMLQGFAVAVKMGATKADFDNTVAIHPTSSEELVTLR
B3: PRDX1 (protein, UniProt Q06830 2-199, looked up)
Peroxiredoxin-1: SSGNAKIGHPAPNFKATAVMPDGQFKDISLSDYKGKYVVFFFYPLDFTFVCPTEIIAFSDRAEEFKKLNCQVIGASVDSHFCHLAWVNTPKKQGGLGPMNIPLVSDPKRTIAQDYGVLKADEGISFRGLFIIDDKGILRQITVNDLPVGRSVDETLRLVQAFQFTDKHGEVCPAGWKPGSDTIKPDVQKSKEYFSKQK
B4: RBM14 (protein, UniProt Q96PK6 1-669, looked up)
RNA-binding protein 14: MKIFVGNVDGADTTPEELAALFAPYGTVMSCAVMKQFAFVHMRENAGALRAIEALHGHELRPGRALVVEMSRPRPLNTWKIFVGNVSAACTSQELRSLFERRGRVIECDVVKDYAFVHMEKEADAKAAIAQLNGKEVKGKRINVELSTKGQKKGPGLAVQSGDKTKKPGAGDTAFPGTGGFSATFDYQQAFGNSTGGFDGQARQPTPPFFGRDRSPLRRSPPRASYVAPLTAQPATYRAQPSVSLGAAYRAQPSASLGVGYRTQPMTAQAASYRAQPSVSLGAPYRGQLASPSSQSAAASSLGPYGGAQPSASALSSYGGQAAAASSLNSYGAQGSSLASYGNQPSSYGAQAASSYGVRAAASSYNTQGAASSLGSYGAQAASYGAQSAASSLAYGAQAASYNAQPSASYNAQSAPYAAQQAASYSSQPAAYVAQPATAAAYASQPAAYAAQATTPMAGSYGAQPVVQTQLNSYGAQASMGLSGSYGAQSAAAATGSYGAAAAYGAQPSATLAAPYRTQSSASLAASYAAQQHPQAAASYRGQPGNAYDGAGQPSAAYLSMSQGAVANANSTPPPYERTRLSPPRASYDDPYKKAVAMSKRYGSDRRLAELSDYRRLSESQLSFRRSPTKSSLDYRRLPDAHSDYARYSGSYNDYLRAAQMHSGYQRRM
B5: HNRNPM (protein, UniProt P52272 2-730, looked up)
Heterogeneous nuclear …: AAGVEAAAEVAATEIKMEEESGAPGVPSGNGAPGPKGEGERPAQNEKRKEKNIKRGGNRFEPYANPTKRYRAFITNIPFDVKWQSLKDLVKEKVGEVTYVELLMDAEGKSRGCAVVEFKMEESMKKAAEVLNKHSLSGRPLKVKEDPDGEHARRAMQKVMATTGGMGMGPGGPGMITIPPSILNNPNIPNEIIHALQAGRLGSTVFVANLDYKVGWKKLKEVFSMAGVVVRADILEDKDGKSRGIGTVTFEQSIEAVQAISMFNGQLLFDRPMHVKMDERALPKGDFFPPERPQQLPHGLGGIGMGLGPGGQPIDANHLNKGIGMGNIGPAGMGMEGIGFGINKMGGMEGPFGGGMENMGRFGSGMNMGRINEILSNALKRGEIIAKQGGGGGGGSVPGIERMGPGIDRLGGAGMERMGAGLGHGMDRVGSEIERMGLVMDRMGSVERMGSGIERMGPLGLDHMASSIERMGQTMERIGSGVERMGAGMGFGLERMAAPIDRVGQTIERMGSGVERMGPAIERMGLSMERMVPAGMGAGLERMGPVMDRMATGLERMGANNLERMGLERMGANSLERMGLERMGANSLERMGPAMGPALGAGIERMGLAMGGGGGASFDRAIEMERGNFGGSFAGSFGGAGGHAPGVARKACQIFVRNLPFDFTWKMLKDKFNECGHVLYADIKMENGKSKGCGVVKFESPEVAERACRMMNGMKLSGREIDVRIDRNA

What was measured:
3×MBT domain of L3MBTL1 = assay: Triple SILAC pull-down, 3xMBT/3xMBTD355N ratio (cytoplasmic, nuclear and chromatin fractions of 293T cells); format: binding, human; details: for 3xMBT/D355N UNC Heavy: experiment with UNC0638 in heavy SILAC media; for 3xMBT/D355N UNC Light: experiment with UNC0638 in light SILAC media;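 on all read-outs here: proteins quantified with MaxQuant, requiring at least two unique peptides and quantification in both label directions, normalized to the mean of proteins from a digested loading control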
G9a and GLP = target: T1, G9a and GLP; assay: Triple SILAC pull-down after UNC0638 treatment of 293T cells, DMSO/UNC0638 ratio of protein captured by 3×MBT; format: cell-based; parameters: endogenous in cells; host or cells: HEK 293T; details: for Relative to UNC0638 UNC Heavy: UNC0638 in heavy SILAC media; for Relative to UNC0638 UNC Light: UNC0638 in light SILAC media; for Relative to UNC0638 Average: average of UNC Light and UNC Heavy experiments;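 on all read-outs here: mass spectrometry (Q-Exactive) SILAC quantitation, DMSO/UNC0638 ratio computed after subtracting 3×MBTD355N mutant pull-down background, only proteins with at least twofold 3×MBT over mutant signal considered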
[1] = SILAC ratio, pull-down 3xMBT vs 3xMBTD355N
[2] = SILAC ratio DMSO/UNC0638 of protein pulled down with 3xMBT
[3] = SILAC ratio 3xMBT vs 3xMBTD355N pull-down, 293T cells, all values in log base 2
[4] = SILAC ratio DMSO relative to UNC0638, pull-down with 3xMBT, all values in log base 2

Row | Molecule | 3xMBT/D355N UNC Heavy (3×MBT domain of L3MBTL1; [1]) [log base 2] | 3xMBT/D355N UNC Light (3×MBT domain of L3MBTL1; [1]) [log base 2] | Relative to UNC0638 UNC Heavy (G9a and GLP; [2]) [log base 2] | Relative to UNC0638 UNC Light (G9a and GLP; [2]) [log base 2] | Relative to UNC0638 Average (G9a and GLP) [log base 2] | 3xMBT/D355N UNC Heavy (3×MBT domain of L3MBTL1; [3]) [log base 2] | 3xMBT/D355N UNC Light (3×MBT domain of L3MBTL1; [3]) [log base 2] | Relative to UNC0638 UNC Heavy (G9a and GLP; [4]) [log base 2] | Relative to UNC0638 UNC Light (G9a and GLP; [4]) [log base 2] | Relative to UNC0638 Average (G9a and GLP; all values in log base 2) [log base 2]
1 | B1 | 1.12 | 0.84 | −0.09 | 1.14 | 0.53 | – | – | – | – | –
2 | B2 | 2.92 | 2.32 | 0.24 | −0.02 | 0.11 | – | – | – | – | –
3 | B3 | – | – | – | – | – | 1.65 | 1.98 | 0.17 | 0.04 | 0.10
4 | B4 | 0.82 | 1.89 | 0.06 | 0.17 | 0.11 | – | – | – | – | –
5 | B5 | – | – | – | – | – | 3.18 | 2.44 | 0.01 | 0.19 | 0.10

Source: US20140274782A1, “AFFINITY REAGENTS AND METHODS FOR DETECTION, PURIFICATION, AND PROTEOMIC ANALYSIS OF METHYLATED PROTEINS” (The Board of Trustees of the Leland Stanford Junior …, priority 2013, published 2014)
